# Substitutions are numbered along the chain they refer to.
# T1: Biotin-huCGRPaSA (human, not fully specified; biotin (position not given))
# T1 construct: exact construct ('aSA') not explained; also called Biotin CGRPaSA; full-length (1-37) CGRP
# T1 peptide: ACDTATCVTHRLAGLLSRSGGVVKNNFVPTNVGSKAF
# B1: hu135 (antibody, V domains shown)
# VH: QVQLVQSGAEVKKPGASVKVSCKASGYTFTDYNMHWVRQAPGQGLEWMGNIYPYNAGTVYNQKFNNRVTLTVDTSSSTAYMELSRLRSDDTAVYYCAREGLGGYWGQGTLVTVSS
# VL: EIVLTQSPATLSLSPGERATLSCKASQNIDFDGYAYMNWYQQKPGQAPRVLIYSVFNLESGIPARFSGSGSGTDFTLTISSLEPEDFAVYYCQQSHEVPYTFGQGTKLEIK
# notes: 2B8 HC1-3/1F5 LC1-1
# B2: hu218 (antibody, V domains shown)
# VH: B1 VH with N50Y, A56G, G57H, N65R, S84R, R85S
# VL: DVQLTQSPSFLSASVGDRVTITCQASQNIDGNTYMNWYQQKPGKAPKVLIYSIFNLESGVPSRFSGSGSGTEFTLTISSLQPEDFATYYCQQSNDYPYTFGQGTKLEIK
# notes: 3H10 HC-2/2B8 LC2-2
# B3: hu212 (antibody, V domains shown)
# VH: B1 VH with N50Y, A56G, G57H, N65R, S84R, R85S
# VL: DIQLTQSPSFLSASVGDRVTITCKASQNIDYDGYAYLNWYQQKPGKAPKVLIYSVFNLESGVPSRFSGSGSGTEFTLTISSLQPEDFATYYCQQSNEFPYTFGQGTKLEIK
# notes: 3H10 HC-2/1A2 LC2-4
# B4: hu161 (antibody, V domains shown)
# VH: B1 VH with G44R, N50Y, Y52S, A56G, V59A, N65K, N66F, R85S, D89E
# VL: B1 VL
# notes: 3E5 HC-2/1F5 LC1-1
# B5: hu199 (antibody, V domains shown)
# VH: B1 VH with N50Y, A56G, G57H, N65R, L70M, S84R, R85S, R98K
# VL: B3 VL
# notes: 3H10 HC-1/1A2 LC2-4
# B6: hu214 (antibody, V domains shown)
# VH: B1 VH with N50Y, A56G, G57H, N65R, S84R, R85S
# VL: B1 VL with Q42H
# notes: 3H10 HC-2/1F5 LC1-2
# B7: hu173 (antibody, V domains shown)
# VH: B1 VH with N50Y, Y52S, A56G, V59A, N65K, N66F, A92V
# VL: B3 VL
# notes: 3E5 HC-3/1A2 LC2-4
# B8: hu43 (antibody, V domains shown)
# VH: B1 VH with Y32F, G44R, N50Y, A56G, G57D, T58V, K63N, N65T, R85S, D89E
# VL: B3 VL
# notes: 1F5 HC-2/1A2 LC2-4
# B9: hu108 (antibody, V domains shown)
# VH: B1 VH with A56G
# VL: B3 VL
# notes: 2B8 HC1-1/1A2 LC2-4
# B10: hu188 (antibody, V domains shown)
# VH: B1 VH with A24T, G44R, N50Y, Y52S, V59A, N65K, N66F, R85S, D89E
# VL: B1 VL with Q42H
# notes: 3E5 HC-4/1F5 LC1-2
# B11: hu17 (antibody, V domains shown)
# VH: QVQLVQSGAEVKKPGASVKVSCKASGYTFTDYNMHWVRQAPGQRLEWMGYIFPYNGVAVYNRKFRSRVTLTVDTSSSTAYMELSSLRSEDTAVYYCAREGLGGYWGQGTLVTVSS
# VL: B3 VL
# notes: 1B2 HC-2/1A2 LC2-4
# B12: hu160 (antibody, V domains shown)
# VH: B11 VH with F52S, V57G, A58T, V59A, R62Q, R65K, S66F
# VL: B3 VL
# notes: 3E5 HC-2/1A2 LC2-4
# B13: hu143 (antibody, V domains shown)
# VH: B1 VH
# VL: B3 VL with F10S, D32G, A35S, L37M, E74D, F98A
# notes: 2B8 HC1-3/3H10 LC2-2
# B14: hu162 (antibody, V domains shown)
# VH: B11 VH with F52S, V57G, A58T, V59A, R62Q, R65K, S66F
# VL: B1 VL with Q42H
# notes: 3E5 HC-2/1F5 LC1-2
# B15: hu208 (antibody, V domains shown)
# VH: B1 VH with N50Y, A56G, G57H, N65R, L70M, S84R, R85S, R98K
# VL: B3 VL with F10S, D32G, A35S, L37M, E74D, F98A
# notes: 3H10 HC-1/3H10 LC2-2
# B16: hu95 (antibody, V domains shown)
# VH: B11 VH with I51V, F52Y, V57G, A58S, V59A, R62Q, R65K
# VL: B3 VL
# notes: 2A2 HC-1/1A2 LC2-4
# B17: hu211 (antibody, V domains shown)
# VH: B1 VH with N50Y, A56G, G57H, N65R, S84R, R85S
# VL: B1 VL with F31Y, M37L, H96N, V98F
# notes: 3H10 HC-2/1A2 LC2-3
# B18: hu4 (antibody, V domains shown)
# VH: B11 VH with R44G, V72I, S84R, E89D
# VL: B3 VL
# notes: 1B2 HC-1/1A2 LC2-4
# B19: hu30 (antibody, V domains shown)
# VH: B11 VH with T30I, Y32F, F52Y, V57D, A58V, R62Q, K63N, R65T, S66N
# VL: B3 VL
# notes: 1F5 HC-1/1A2 LC2-4
# B20: hu82 (antibody, V domains shown)
# VH: B1 VH with T30I, Y32F, G44R, N50Y, G57D, T58V, K63D, N65T, R85S, D89E
# VL: B3 VL
# notes: 1F5 HC-5/1A2 LC2-4
# B21: hu56 (antibody, V domains shown)
# VH: B1 VH with Y32F, N50Y, A56G, G57D, T58V, K63N, N65T, S84R, R85S
# VL: B3 VL
# notes: 1F5 HC-3/1A2 LC2-4
# B22: hu187 (antibody, V domains shown)
# VH: B1 VH with A24T, G44R, N50Y, Y52S, V59A, N65K, N66F, R85S, D89E
# VL: B1 VL
# notes: 3E5 HC-4/1F5 LC1-1
# B23: hu121 (antibody, V domains shown)
# VH: B1 VH with A56G, S84R, R85S
# VL: B3 VL
# notes: 2B8 HC1-2/1A2 LC2-4
# B24: hu117 (antibody, V domains shown)
# VH: B1 VH with A56G
# VL: B3 VL with F10S, D32G, A35S, L37M, E74D, F98A
# notes: 2B8 HC1-1/3H10 LC2-2
# B25: hu10 (antibody, V domains shown)
# VH: B11 VH with R44G, V72I, S84R, E89D
# VL: B2 VL
# notes: 1B2 HC-1/2B8 LC2-2
# B26: hu148 (antibody, V domains shown)
# VH: B11 VH with A24T, F52S, V57G, A58T, V59A, R62Q, R65K, S66F
# VL: B1 VL
# notes: 3E5 HC-1/1F5 LC1-1
# B27: hu172 (antibody, V domains shown)
# VH: B1 VH with N50Y, Y52S, A56G, V59A, N65K, N66F, A92V
# VL: B1 VL with F31Y, M37L, H96N, V98F
# notes: 3E5 HC-3/1A2 LC2-3
# B28: hu65 (antibody, V domains shown)
# VH: B1 VH with Y32F, N50Y, A56G, G57D, T58V, K63N, N65T, S84R, R85S
# VL: B3 VL with F10S, D32G, A35S, L37M, E74D, F98A
# notes: 1F5 HC-3/3H10 LC2-2
# B29: hu134 (antibody, V domains shown)
# VH: B1 VH
# VL: B3 VL
# notes: 2B8 HC1-3/1A2 LC2-4
# B30: hu186 (antibody, V domains shown)
# VH: B1 VH with A24T, G44R, N50Y, Y52S, V59A, N65K, N66F, R85S, D89E
# VL: B3 VL
# notes: 3E5 HC-4/1A2 LC2-4
# B31: hu23 (antibody, V domains shown)
# VH: B11 VH
# VL: B2 VL
# notes: 1B2 HC-2/2B8 LC2-2
# B32: hu175 (antibody, V domains shown)
# VH: B1 VH with N50Y, Y52S, A56G, V59A, N65K, N66F, A92V
# VL: B1 VL with Q42H
# notes: 3E5 HC-3/1F5 LC1-2
# B33: hu200 (antibody, V domains shown)
# VH: B1 VH with N50Y, A56G, G57H, N65R, L70M, S84R, R85S, R98K
# VL: B1 VL
# notes: 3H10 HC-1/1F5 LC1-1
# B34: hu198 (antibody, V domains shown)
# VH: B1 VH with N50Y, A56G, G57H, N65R, L70M, S84R, R85S, R98K
# VL: B1 VL with F31Y, M37L, H96N, V98F
# notes: 3H10 HC-1/1A2 LC2-3
# B35: hu221 (antibody, V domains shown)
# VH: B1 VH with N50Y, A56G, G57H, N65R, S84R, R85S
# VL: B3 VL with F10S, D32G, A35S, L37M, E74D, F98A
# notes: 3H10 HC-2/3H10 LC2-2
# B36: hu159 (antibody, V domains shown)
# VH: B11 VH with F52S, V57G, A58T, V59A, R62Q, R65K, S66F
# VL: B1 VL with F31Y, M37L, H96N, V98F
# notes: 3E5 HC-2/1A2 LC2-3
# B37: hu174 (antibody, V domains shown)
# VH: B1 VH with N50Y, Y52S, A56G, V59A, N65K, N66F, A92V
# VL: B1 VL
# notes: 3E5 HC-3/1F5 LC1-1
# B38: hu201 (antibody, V domains shown)
# VH: B1 VH with N50Y, A56G, G57H, N65R, L70M, S84R, R85S, R98K
# VL: B1 VL with Q42H
# notes: 3H10 HC-1/1F5 LC1-2
# B39: hu130 (antibody, V domains shown)
# VH: B1 VH with A56G, S84R, R85S
# VL: B3 VL with F10S, D32G, A35S, L37M, E74D, F98A
# notes: 2B8 HC1-2/3H10 LC2-2
# B40: hu147 (antibody, V domains shown)
# VH: B11 VH with A24T, F52S, V57G, A58T, V59A, R62Q, R65K, S66F
# VL: B3 VL
# notes: 3E5 HC-1/1A2 LC2-4
# B41: hu149 (antibody, V domains shown)
# VH: B11 VH with A24T, F52S, V57G, A58T, V59A, R62Q, R65K, S66F
# VL: B1 VL with Q42H
# notes: 3E5 HC-1/1F5 LC1-2
# B42: hu13 (antibody, V domains shown)
# VH: B11 VH with R44G, V72I, S84R, E89D
# VL: B3 VL with F10S, D32G, A35S, L37M, E74D, F98A
# notes: 1B2 HC-1/3H10 LC2-2
# Target: T1, Biotin-huCGRPaSA
# Assay: ELISA, supernatant; relative to chimeric C245
# Procedure, shortened: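 Antibodies, including reference chimeric C245, titrated 2.5-fold from 1000 ng/mL and incubated 60 min at 37°C on wells coated with 1.0 μg/mL biotin-CGRPaSA and blocked with 2% BSA. Bound IgG detected with HRP anti-human Fc antibody and TMB, acid-stopped, absorbance 450/620 nm.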
row,Binder,"Relative binding activity, %"
1,B1,98%
2,B2,24%
3,B3,38%
4,B4,88%
5,B5,41%
6,B6,57%
7,B7,92%
8,B8,44%
9,B9,70%
10,B10,46%
11,B11,35%
12,B12,50%
13,B13,41%
14,B14,81%
15,B15,15%
16,B16,43%
17,B17,54%
18,B18,58%
19,B19,47%
20,B20,97%
21,B21,53%

row,Binder,"Relative binding activity, %"
1,B22,67%
2,B23,49%
3,B24,36%
4,B25,14%
5,B26,100%
6,B27,94%
7,B28,20%
8,B29,86%
9,B30,53%
10,B31,17%
11,B32,82%
12,B33,43%
13,B34,39%
14,B35,24%
15,B36,26%
16,B37,84%
17,B38,67%
18,B39,53%
19,B40,111%
20,B41,91%
21,B42,27%

# Reference: patent US20260125454A1 (SHANGHAI JUNSHI BIOSCIENCES, published 2026)
